# Laboratory results published in the DeepSol protein solubility set.
# Assay: soluble on expression in E. coli; label from the status in PepcDB or PDB records
row,Sequence,soluble on expression in E. coli
1,MADTEGTSSSIPTSTNSSRHRASRGRGGRFRQAPRQVGANTADNLDAAPLMNPRGGHRGGSGNKRGRGQKEATSASRLQMQPEANFTFNPNAATFNPAQSVLFDPSVPPPTIGASTHSNQNSRQQEPSQNRRRRGGQQNTQRRQLEIQEQRGDSHPQNQSRQNNRNQLNVDRIANQQNKSVQNPSRNPGNSRRGQGARRREQKEEPLTEEETKILADKPLREGLVYLLENNKYECAICYTRITTRQGVWSCKTCYHIFHISTGCITDWARSSRDKEGANTWRCPTCQTENETMPYNYYCFCGRMRNPNFRVGEVPHSCGETCGGARKFGCPHPCTELCHPGPCIECKLFTTKSCNCGKTKKSVRCGSDQEVMCETVCGKQLSCGQHNCERICHSGDCGECTVILEQDCFCGKTPKEVSCNPCAHEKYSCGSECDGMFSCGIHHCTKKCHDKECGECETGANRIRTCPCGRNTLQSLGVTRKKCTDMVPTCDSVCDKWLTCGTPGKNHHCREKCHEGPCPPCNLNTSVICRCGTSKGVIPCDEYLQIMKTTGEYLCTKRCRKKKSCGMHKCQEVCCIQDEHFCLQMCNKRLSCGIHTCENVCHAGQCRPCLQASFDEQFCHCGHTVRMPPIPCGARLPVCSQPCVRPHSCDHSVSHKCHGEQNCPPCTQLTEKMCYGGHRVRKNIPCHIDSVSCGVVCKKPLKCGVHVCQRTCHGEECEKEGEKCTKKCETIRELCEHPCALPCHEDSPCEPSPCKASVRISCECGRIKKDAPCCEVDKMILSKLEKEEEEKSESDGEEKVVKEGILKRSTSFSQLNCMKCDDECKKLERNRKVAEALEVDTDEYGMNKLAPTISFPCYLKEMVRTNIDFVKSVEKILIDLVIQILSGEAYHDTFRAHLPAMSIEKRRFVHEYANFFNIASESVDSPPKRSIVLTAVRGKSHQPLVLISDLVNYKGALKTPGPAVIRKDIMDQALSKKEETEGLMKPLRCTEKMVVRREARPMKEITAPIPLKQQNQFALLGSDVDSDDEESNVPTTSNLVSSPPKDWWKDEEEGWQKVQQKEYVVEVERDMTEDEIEAAKKLDEGPTWEDQCDEDAPATETSSAIESPAKEEPVAELLE,soluble
2,MADTSCKLKPLCFRFVSTLKSPIAVITVTYSPGKYLASFLDSLPGATSRDTHVVMADNGSVDGVPEQAAASRSNVEFLSTGGNLGYGTAINIAARSLRARREAGEIDGEFFLVSNPDVVFDEDSIDQLLECAKRHPEAGAVGPLIREADGSAYPSARAVPTLANGIGHALLGAVWKSNPWSAAYRDDEDMDTERTAGWLSGSCLLLRWDAFDRVGGFDERYFMYMEDVDLGDRLVRAGFTNVFCPSAQIIHAKGHVAGKNPENMLPAHHESAYRFQADRLAKPWQAPIRLALRIGLKLRAGVAVGVSKMRTKASLEHHHHHH,not soluble
3,MAEEGYKVVLNVYDLSNGLARQLSTSFLGKPIEAIWHTGVVVYGNEYFFGGGIQSLAAGRTPYGRPVRVVEMGETHIPREVFEDYLRDISPRYTAETYRLLSHNCNNFSNEVAQFLVGAGIPDYILNLPAEVMSSPMGPLIMPMIQNLESTLRTNAAPQATQFVPSSVPPPPPPQNKPGEGSSSSKQEDKAAKAKQGSAADPLGGARGKVQEEVMREFAAIMASGTLRASEAAALAMRRVMERHGNATMQQS,soluble
4,MAEEYSWDSYLNDRLLATNQVSGAGLASEEDGVVYACVAQGEESDPNFDKWSLFYKEDYDIEVEDENGTKTTKTINEGQTILVVFNEGYAPDGVWLGGTKYQFINIERDLEFEGYNFDVATCAKLKGGLHLVKVPGGNILVVLYDEEKEQDRGNSKIAALTFAKELAESSQLQHHHHHH,soluble
5,MAEGKAGGAAGLFAKQVQKKFSRAQEKVLQKLGKAVETKDERFEQSANNFYQQQAEGHKLYKDLKNFLSAVKVMHESSKRVSETLQEIYSSEWDGHEELKAIVWNNDLLWEDYEEKLADQAVRTMEIYVAQFSEIKERIAKRGRKLVDYDSARHHLEAVQNAKKKDEAKTAKAEEEFNKAQTVFEDLNQELLEELPILYNSRIGCYVTIFQNISNLRDVFYREMSKLNHNLYEVMSKLEKQHSNKVFVVKGLSSSSRRSLVISPPVRTATVSSPLTSPTSPSTLSLKSESESVSATEDLAPDAAQGEDNSEIKELLEEEEIEKEGSEASSSEEDEPLPACNGPAQAQPSPTTERAKSQEEVLPSSTTPSPGGALSPSGQPSSSATEVVLRTRTASEGSEQPKKRASIQRTSAPPSRPPPPRATASPRPSSGNIPSSPTASGGGSPTSPRASLGTGTASPRTSLEVSPNPEPPEKPVRTPEAKENENIHNQNPEELCTSPTLMTSQVASEPGEAKKMEDKEKDNKLISADSSEGQDQLQVSMVPENNNLTAPEPQEEVSTSENPQL,soluble
6,MAEIKHYQFNVVMTCSGCSGAVNKVLTKLEPDVSKIDISLEKQLVDVYTTLPYDFILEKIKKTGKEVRSGKQLAREVILAVHGMTCSACTNTINTQLRALKGVTKCDISLVTNECQVTYDNEVTADSIKEIIEDCGFDCEILRDS,soluble
7,MAEILRAENIKKVIRGYEILKGISLSVKKGEFVSIIGASGSGKSTLLYILGLLDAPTEGKVFLEGKEVDYTNEKELSLLRNRKLGFVFQFHYLIPELTALENVIVPMLKMGKPKKEAKERGEYLLSELGLGDKLSRKPYELSGGEQQRVAIARALANEPILLFADEPTGNLDSANTKRVMDIFLKINEGGTSIVMVTHERELAELTHRTLEMKDGKVVGEITRV,soluble
8,MAEINIYQNPGQSLANIYKGFARQCNPGFVFPEAQTIEAWDIPLRLHPEFIPGGDISKADQQYSTLLAQEIANGVTIGFRMVNEKERVCNVEILPLLTSMAQNLDRIKARFGSGYLDRFKGSPNVYPTDVGFSTDASGGISQESGLLVSYGVNLRTLTPGTWQAMTLPEDIKALVGPGVGLRLDAPNFSDVFNTIKSGLRYTTAVTLLLAYFAAI,soluble
9,MAEIVLTQSPGTQSLSPGERATLSCRASQSVGNNKLAWYQQRPGQAPRLLIYGASSRPSGVADRFSGSGSGTDFTLTISRLEPEDFAVYYCQQYGQSLSTFGQGTKVEVKLVPR,soluble
10,MAEKSFKYIILGGGVSAGYAAKEFANQGVQPGELAVISKEAVAPYERPALSKGYLFPEGAARLPGFHCCVGSGGEKLLPESYKQKGIELILSTEIVKADLSAKSLVSATGDVFKYQTLIIATGSTVLRLTDFGVKGADSKNILYLREIDDADKLVEAIKAKKGGKAVVVGGGYIGLELSAVLRINNLDVTMVFPEPWCMPRLFTADIAAFYETYYTNKGVKIIKGTVASGFTAQPNGEVKEVQLKDGRTLEADIVIVGVGAKPLTSLFKGQVEEDKGGIKTDAFFKTSVPDVYAVGDVATFPLKMYGDVRRVEHVDHSRKSAEQAVKAIKAAEGGAAVEEYDYLPFFYSRSFDLSWQFYGDNVGDSVLFGDSNPSNPKPRFGAYWVQGGKVVGAFMEGGSGDENKALAKVAKARPSAESLDELVKQGISFAAKI,soluble
11,MAELDEAALLGDGNEQHDGPIDENALLDGKELKEEDIDDLYDEAIAPTNSTESAKPVSPTITTVTAPTAGIGAKPATSSEGRKYCCYVGNLLWYTTDADLLKALQSTGLARSQFADMKFFENRTNGQSKGYALLVLNSDAAVKQTMEILPTKTIHGQSPTVLSYNKTNQAKLEDAQAKNQTRPDVKKKGFEEGCVNMGTIRIGAGGQTGRTGTSVSGRSGPPPLMMQQVRPTPLMSQPTSLPSNLNQAPQMRLQINGQQVPLMNRAPVPQQTMLGNGPLGGMNQQIQQQPQMMMGQQVRPMMQTSMGIQPMMGMNAPPPMNNQFQNRPPQLGSMGVQPLMQMNTAMRPPINGLPPVHVNPQMFPGLQGTVLSDAEFEDVMTRNQTVSSSAIARAITDASVGDIKGASETILTAIQLIKNSRIGHDERCRQLVYGLEHTLKGLESKGYSSRSKSHRDRSRSRERDRKRRRRSRTRSRSYSRSPSPRRRRY,soluble
12,MAELDIGQHCQVQHCRQRDFLPFVCDGCSGIFCLEHRSKDSHGCSEVNVVKERPKTDEHKSY,soluble
13,MAELPAKRRFTRIDRLPPYVFNITSELKMAARRRGEDIIDFSMGNPDGPTPPHIVEKMCSVAQREDTHGYSTSRGIPCLRRAISRWYADRYQVDIDPENEAIVTIGSKEGLAHLMLATLDHGDTVLVPNPSYPIHIYGAVIAGAQVRSVPLTEGIDFFGELERAIRETIPKPKMMILGFPSNPTAQCVELDFFERVVALAKQYDVLVVHDLAYADIVYDGWKAPSIMQVPGAKDIAVEFFTLSKSYNMAGWRIGFMVGNPELVSALARIKSYHDYGTFTPLQVAAIAALEGDQQCVRDIAEQYRQRRNALVRGLHEAGWMVDNPKASMYVWAKIPEPYAHLGSLEFAKRLLAEAKVCVSPGIGFGDYGDTHVRFALIENQDRIRQAVRGIKSMFRADGLLKPGKSSPNEMA,not soluble
